According to article PMC3971956:

Key:
Test in all cases: SAXS
[1] = molecular target: PARP-1 full-length (human, UniProt P09874 1-1014)
[2] = molecular target: ABC (human, UniProt P09874 1-373)
[3] = molecular target: AB (human, UniProt P09874 1-232)

Measured: binding result

Chain of ABC (P09874 1-373): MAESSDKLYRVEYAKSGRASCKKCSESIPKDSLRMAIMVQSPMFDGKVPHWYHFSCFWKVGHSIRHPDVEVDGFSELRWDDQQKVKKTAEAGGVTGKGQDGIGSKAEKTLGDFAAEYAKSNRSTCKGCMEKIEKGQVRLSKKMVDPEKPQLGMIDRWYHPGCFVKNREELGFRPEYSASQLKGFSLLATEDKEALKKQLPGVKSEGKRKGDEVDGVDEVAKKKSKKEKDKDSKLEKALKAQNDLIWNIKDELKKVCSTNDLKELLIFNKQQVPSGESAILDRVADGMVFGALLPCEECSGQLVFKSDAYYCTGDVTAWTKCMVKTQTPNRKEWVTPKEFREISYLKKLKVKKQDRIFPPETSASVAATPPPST
Chain of AB (P09874 1-232): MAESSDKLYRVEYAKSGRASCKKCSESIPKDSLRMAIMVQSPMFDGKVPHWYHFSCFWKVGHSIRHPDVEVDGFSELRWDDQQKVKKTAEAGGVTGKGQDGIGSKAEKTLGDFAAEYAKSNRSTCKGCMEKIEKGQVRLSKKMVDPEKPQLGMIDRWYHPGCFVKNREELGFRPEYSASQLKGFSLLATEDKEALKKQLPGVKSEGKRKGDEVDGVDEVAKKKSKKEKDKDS
Chain of PARP-1 full-length (P09874 whole entry): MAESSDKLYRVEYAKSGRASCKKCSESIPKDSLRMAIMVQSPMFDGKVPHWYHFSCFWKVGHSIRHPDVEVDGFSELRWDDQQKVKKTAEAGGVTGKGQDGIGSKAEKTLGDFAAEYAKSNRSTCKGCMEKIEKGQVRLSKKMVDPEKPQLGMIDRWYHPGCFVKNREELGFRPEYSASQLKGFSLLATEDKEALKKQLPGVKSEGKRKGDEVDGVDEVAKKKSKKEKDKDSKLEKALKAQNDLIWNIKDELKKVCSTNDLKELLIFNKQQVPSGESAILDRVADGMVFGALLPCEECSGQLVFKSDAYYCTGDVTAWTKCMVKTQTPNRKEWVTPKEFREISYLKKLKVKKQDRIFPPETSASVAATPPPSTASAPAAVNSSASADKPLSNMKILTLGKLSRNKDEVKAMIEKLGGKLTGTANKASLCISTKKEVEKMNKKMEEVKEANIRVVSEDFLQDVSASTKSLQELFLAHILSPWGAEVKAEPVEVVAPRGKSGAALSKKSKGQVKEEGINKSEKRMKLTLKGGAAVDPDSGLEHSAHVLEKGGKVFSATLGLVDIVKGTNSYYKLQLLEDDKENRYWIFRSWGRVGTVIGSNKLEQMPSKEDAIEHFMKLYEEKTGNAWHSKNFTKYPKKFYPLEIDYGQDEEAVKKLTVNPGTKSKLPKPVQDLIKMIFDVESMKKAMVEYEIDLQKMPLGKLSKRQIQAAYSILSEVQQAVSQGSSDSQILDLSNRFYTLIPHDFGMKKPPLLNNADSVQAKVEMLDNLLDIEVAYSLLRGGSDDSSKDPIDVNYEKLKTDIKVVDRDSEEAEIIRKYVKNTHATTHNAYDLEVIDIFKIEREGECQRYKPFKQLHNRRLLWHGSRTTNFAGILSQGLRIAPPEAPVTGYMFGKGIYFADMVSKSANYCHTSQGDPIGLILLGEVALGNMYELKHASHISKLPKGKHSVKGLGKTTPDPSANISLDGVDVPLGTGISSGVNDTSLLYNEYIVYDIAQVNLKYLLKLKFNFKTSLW

B1: 8-mer DNA (dsDNA)
DNA 1: GGAATTCC
DNA 2: GGAATTCC
binds: all assays above
